Results published in the supplement of paper PMC9112550, “Optimization of the antimicrobial peptide Bac7 by deep mutational scanning” (BMC Biology, 2022).

tested on: Escherichia coli TOP10; test: shrunken log2 fold change of peptide-encoding DNA abundance (4.5 h post-induction vs induction); higher = less antimicrobial activity (less host growth inhibition); details: time post-induction: 4.5 h; library: site-saturation at positions 5, 18, 19, 20
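Note: peptides expressed intracellularly from a pBAD plasmid library in pooled LB shake-flask culture, induced with 0.3% L-arabinose, DNA abundance read by NGS, three biological replicates, DESeq2 with apeglm shrinkage.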

Sequence | shrunken log2 fold change
RRIRSRPPRLPRPRPRPIIEPRP | -0.114
RRIRSRPPRLPRPRPRPIIQPRP | -0.429
RRIRSRPPRLPRPRPRPIITPRP | -0.507
RRIRSRPPRLPRPRPRPILMPRP | -0.172
RRIRSRPPRLPRPRPRPIPDPRP | -0.0495
RRIRSRPPRLPRPRPRPIQFPRP | -0.396
RRIRSRPPRLPRPRPRPIRCPRP | 0.00778
RRIRSRPPRLPRPRPRPISHPRP | -0.421
RRIRSRPPRLPRPRPRPISVPRP | -0.151
RRIRSRPPRLPRPRPRPISWPRP | -0.186
RRIRSRPPRLPRPRPRPITFPRP | -0.716
RRIRSRPPRLPRPRPRPITYPRP | -0.361
RRIRSRPPRLPRPRPRPIVEPRP | 1.56
RRIRSRPPRLPRPRPRPIVIPRP | -0.872
RRIRSRPPRLPRPRPRPIVQPRP | 0.144
RRIRSRPPRLPRPRPRPIYPPRP | -0.766
RRIRSRPPRLPRPRPRPKAYPRP | -0.0451
RRIRSRPPRLPRPRPRPKDIPRP | -0.828
RRIRSRPPRLPRPRPRPKEMPRP | 0.187
RRIRSRPPRLPRPRPRPKGDPRP | -0.011
RRIRSRPPRLPRPRPRPKGKPRP | 0.0401
RRIRSRPPRLPRPRPRPKGRPRP | 0.0764

Sequence | shrunken log2 fold change
RRIRSRPPRLPRPRPRPKITPRP | -0.325
RRIRSRPPRLPRPRPRPKLHPRP | -0.0772
RRIRSRPPRLPRPRPRPKLPPRP | -0.0678
RRIRSRPPRLPRPRPRPKLYPRP | -0.199
RRIRSRPPRLPRPRPRPKPNPRP | 0.217
RRIRSRPPRLPRPRPRPKQCPRP | 0.14
RRIRSRPPRLPRPRPRPKQGPRP | 0.245
RRIRSRPPRLPRPRPRPKQNPRP | 0.0535
RRIRSRPPRLPRPRPRPKRWPRP | 0.71
RRIRSRPPRLPRPRPRPKTGPRP | -0.071
RRIRSRPPRLPRPRPRPKVSPRP | 0.21
RRIRSRPPRLPRPRPRPKYGPRP | -0.884
RRIRSRPPRLPRPRPRPKYLPRP | -0.756
RRIRSRPPRLPRPRPRPKYYPRP | -0.918
RRIRSRPPRLPRPRPRPLAEPRP | 0.502
RRIRSRPPRLPRPRPRPLAWPRP | 0.402
RRIRSRPPRLPRPRPRPLCCPRP | 0.473
RRIRSRPPRLPRPRPRPLCNPRP | -0.278
RRIRSRPPRLPRPRPRPLDEPRP | 0.189
RRIRSRPPRLPRPRPRPLDRPRP | 0.218
RRIRSRPPRLPRPRPRPLDYPRP | -0.194
RRIRSRPPRLPRPRPRPLECPRP | -0.267

Sequence | shrunken log2 fold change
RRIRSRPPRLPRPRPRPLFRPRP | -0.368
RRIRSRPPRLPRPRPRPLFSPRP | -0.0902
RRIRSRPPRLPRPRPRPLHNPRP | -0.198
RRIRSRPPRLPRPRPRPLHSPRP | -0.0322
RRIRSRPPRLPRPRPRPLIAPRP | 0.0475
RRIRSRPPRLPRPRPRPLIRPRP | -0.196
RRIRSRPPRLPRPRPRPLITPRP | -0.012
RRIRSRPPRLPRPRPRPLIVPRP | -0.206
RRIRSRPPRLPRPRPRPLMGPRP | -0.271
RRIRSRPPRLPRPRPRPLMLPRP | -0.581
RRIRSRPPRLPRPRPRPLMQPRP | -0.0707
RRIRSRPPRLPRPRPRPLQIPRP | 0.0322
RRIRSRPPRLPRPRPRPLQKPRP | 0.0179
RRIRSRPPRLPRPRPRPLRPPRP | 0.953
RRIRSRPPRLPRPRPRPLSIPRP | -0.447
RRIRSRPPRLPRPRPRPLTGPRP | 0.043
RRIRSRPPRLPRPRPRPLTMPRP | -0.242
RRIRSRPPRLPRPRPRPLVLPRP | -0.233
RRIRSRPPRLPRPRPRPLVWPRP | 0.272
RRIRSRPPRLPRPRPRPLWAPRP | 0.206
RRIRSRPPRLPRPRPRPLWDPRP | -0.134
RRIRSRPPRLPRPRPRPLWPPRP | 0.229

Sequence | shrunken log2 fold change
RRIRSRPPRLPRPRPRPLYWPRP | -0.154
RRIRSRPPRLPRPRPRPMADPRP | -0.0211
RRIRSRPPRLPRPRPRPMCLPRP | 0.038
RRIRSRPPRLPRPRPRPMDKPRP | 0.0107
RRIRSRPPRLPRPRPRPMEAPRP | -0.00776
RRIRSRPPRLPRPRPRPMENPRP | 0.0424
RRIRSRPPRLPRPRPRPMEPPRP | 0.0473
RRIRSRPPRLPRPRPRPMFMPRP | -0.223
RRIRSRPPRLPRPRPRPMFSPRP | -0.49
RRIRSRPPRLPRPRPRPMGTPRP | 0.194
RRIRSRPPRLPRPRPRPMHEPRP | -0.271
RRIRSRPPRLPRPRPRPMHIPRP | -0.283
RRIRSRPPRLPRPRPRPMHNPRP | -0.179
RRIRSRPPRLPRPRPRPMKQPRP | 0.00692
RRIRSRPPRLPRPRPRPMLGPRP | 0.106
RRIRSRPPRLPRPRPRPMLKPRP | -0.0793
RRIRSRPPRLPRPRPRPMLWPRP | 0.619
RRIRSRPPRLPRPRPRPMMNPRP | -0.0187
RRIRSRPPRLPRPRPRPMPRPRP | 0.346
RRIRSRPPRLPRPRPRPMQFPRP | 0.0683
RRIRSRPPRLPRPRPRPMQKPRP | -0.0221
RRIRSRPPRLPRPRPRPMQVPRP | -0.064

Sequence | shrunken log2 fold change
RRIRSRPPRLPRPRPRPMRLPRP | 0.0162
RRIRSRPPRLPRPRPRPMRMPRP | 0.323
RRIRSRPPRLPRPRPRPMRYPRP | 0.215
RRIRSRPPRLPRPRPRPMSIPRP | -0.214
RRIRSRPPRLPRPRPRPMSLPRP | 0.226
RRIRSRPPRLPRPRPRPMTPPRP | 0.13
RRIRSRPPRLPRPRPRPMTSPRP | -0.0553
RRIRSRPPRLPRPRPRPMTWPRP | -0.0238
RRIRSRPPRLPRPRPRPMVAPRP | 0.0774
RRIRSRPPRLPRPRPRPMWSPRP | 0.284
RRIRSRPPRLPRPRPRPMYLPRP | -0.0356
RRIRSRPPRLPRPRPRPNDGPRP | -0.0933
RRIRSRPPRLPRPRPRPNDMPRP | -0.193
RRIRSRPPRLPRPRPRPNDPPRP | -0.619
RRIRSRPPRLPRPRPRPNEDPRP | -0.0395
RRIRSRPPRLPRPRPRPNHRPRP | -0.426
RRIRSRPPRLPRPRPRPNHTPRP | -0.444
RRIRSRPPRLPRPRPRPNHWPRP | -0.277
RRIRSRPPRLPRPRPRPNLCPRP | -0.0929
RRIRSRPPRLPRPRPRPNLPPRP | 0.247
RRIRSRPPRLPRPRPRPNLQPRP | -0.141
